This passage reports binding result and binding signal results from paper doi:10.1101/2025.08.05.25330579.

One data set has as its target T1, RBM10 RRM2 WT (UniProt P98175 300-384).
T1 sequence: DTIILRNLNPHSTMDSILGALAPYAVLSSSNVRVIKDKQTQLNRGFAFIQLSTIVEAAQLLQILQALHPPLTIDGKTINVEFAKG
Kind of data set: ITC.

Another data set has as its target T2, RBM10 RRM2 R332C (UniProt P98175 300-384, R332C).
T2 sequence: T1 sequence with R33C
Kind of data set: ITC and NMR.

Changes are numbered by the printed parent chain.

B1: NUMB exon 12-derived 12mer RNA (ssRNA)
RNA: UUGUCUGCUCCC
For the molecule B1, the binding result with RBM10 RRM2 WT is “binds”. In addition, the binding signal in the data set with RBM10 RRM2 R332C is > 20 fold reduced affinity vs WT.
